The text below walks through data of patent EP4491629A1 (Université de Lorraine, dated 2025).

The data set deals with the molecule itself. As to the kind of experiment: size exclusion chromatography (Superdex 75); self-association. In general terms: SEC sorts molecules by how far they enter the pores of the column.

B1: C131E mutant of Cricetulus griseus galectin-1 (other)
chain: ACGLVASNLNLKPGECLKVRGEVAPDAKSFVLNLGKDSNNLCLHFNPRFNAHGDANTIVCNSKDNGAWGTEHREPAFPFQPGSTVEVCITFDQADLTIKLPDGHEFKFPNRLNMEAINYMAADGDFKIKEVAFEELSSGVDLGTENLYFQS
notes: also called Gal1 C131E; Gal1 mutant C131E
On to B1, for which the binding result is given as “no binding”.

B2: Cricetulus griseus galectin-1 (wild-type), produced from the pCarONE vector (other)
chain: ACGLVASNLNLKPGECLKVRGEVAPDAKSFVLNLGKDSNNLCLHFNPRFNAHGDANTIVCNSKDNGAWGTEHREPAFPFQPGSTVEVCITFDQADLTIKLPDGHEFKFPNRLNMEAINYMAADGDFKIKCVAFE
notes: Lectin; recombinant from E. coli; The entries are about self-association (homodimer, printed as 2x16.6 kDa); also called Gal1 wild-type; Gal1; not shown: spacer arm and TEV protease cleavage site encoded by pCarONE
For B2, the binding result is “binds”.

B3: E16K mutant of Cricetulus griseus galectin-1 (other)
chain: ACGLVASNLNLKPGKCLKVRGEVAPDAKSFVLNLGKDSNNLCLHFNPRFNAHGDANTIVCNSKDNGAWGTEHREPAFPFQPGSTVEVCITFDQADLTIKLPDGHEFKFPNRLNMEAINYMAADGDFKIKCVAFE
notes: Recombinant from E. coli; tested for self-association by size exclusion chromatography; also called Gal1 E16K; Gal1 mutant E16K; not shown: spacer arm and TEV protease cleavage site encoded by pCarONEE16K
Take B3: the binding result is “binds”.
